According to patent publication US20200024330A1:

Legend:
Assay in all cases: cell-based or functional assay
[1] = target: HIV-1 JR-CSF Env T320A (HIV-1 isolate JR-CSF) (UniProt P20871)
[2] = target: HIV-1 JR-CSF Env N276A (HIV-1 JR-CSF) (UniProt P20871)
[3] = target: HIV-1 JR-CSF Env N262A (HIV-1 JR-CSF) (UniProt P20871)
[4] = target: HIV-1 JR-CSF Env N355A (HIV-1 isolate JR-CSF) (UniProt P20871)
[5] = target: HIV-1 JR-CSF Env T319A (HIV-1 isolate JR-CSF) (UniProt P20871)
[6] = target: HIV-1 JR-CSF Env R327A (HIV-1 isolate JR-CSF) (UniProt P20871)
[7] = target: HIV-1 JR-CSF Env I326A (HIV-1 isolate JR-CSF) (UniProt P20871)
[8] = target: HIV-1 JR-CSF Env Q422A (HIV-1 (isolate JR-CSF)) (UniProt P20871)
[9] = target: HIV-1 JR-CSF Env T303A (HIV-1 JR-CSF) (UniProt P20871)
[10] = target: HIV-1 JR-CSF Env R304A (HIV-1 JR-CSF) (UniProt P20871)
[11] = target: HIV-1 JR-CSF Env I414A (HIV-1 (isolate JR-CSF)) (UniProt P20871)
[12] = target: HIV-1 JR-CSF Env N339A (HIV-1 isolate JR-CSF) (UniProt P20871)
[13] = target: HIV-1 JR-CSF Env T297A (HIV-1 JR-CSF) (UniProt P20871)
[14] = target: HIV-1 92BR020 envelope glycoprotein (Env) (HIV-1)
[15] = target: HIV-1 JR-CSF Env S393A (HIV-1 (isolate JR-CSF)) (UniProt P20871)
[16] = target: HIV-1 JR-CSF Env K343A (HIV-1 isolate JR-CSF) (UniProt P20871)
[17] = target: HIV-1 JR-CSF Env T341A (HIV-1 isolate JR-CSF) (UniProt P20871)
[18] = target: HIV-1 JR-CSF Env I323A (HIV-1 isolate JR-CSF) (UniProt P20871)
[19] = target: HIV-1 JR-CSF Env T394A (HIV-1 (isolate JR-CSF)) (UniProt P20871)
[20] = target: HIV-1 JR-CSF Env N411A (HIV-1 (isolate JR-CSF)) (UniProt P20871)
[21] = target: HIV-1 JR-CSF Env S334A (HIV-1 isolate JR-CSF) (UniProt P20871)
[22] = target: HIV-1 JR-CSF Env P299A (HIV-1 JR-CSF) (UniProt P20871)
[23] = target: HIV-1 JR-CSF Env W395A (HIV-1 (isolate JR-CSF)) (UniProt P20871)
[24] = target: HIV-1 APV17 Env (pseudovirus) (HIV-1)
[25] = target: HIV-1 APV6 Env (pseudovirus) (HIV-1)
[26] = target: HIV-1 MGRM-C-026 Env (pseudovirus) (HIV-1)
[27] = target: HIV-1 APV-17 envelope glycoprotein (Env) on pseudovirus (HIV-1)
[28] = target: HIV-1 envelope glycoprotein (Env) of isolate MGRM-Chronic-B-012, on pseudovirus (HIV-1)
[29] = target: HIV-1 envelope glycoprotein (Env) of isolate APV_6, on pseudovirus (HIV-1)
[30] = target: HIV-1 Env of isolate MGRM-F1-020 (clade F), on pseudovirus (HIV-1)
[31] = target: HIV-1 envelope glycoprotein (Env) of isolate MGRM-Chronic-B-018, on pseudovirus (HIV-1)
[32] = target: HIV-1 envelope glycoprotein (Env) of isolate MGRM-Chronic-B-017, on pseudovirus (HIV-1)
[33] = target: HIV-1 ADA Env (pseudovirus) (HIV-1 ADA)
[34] = target: HIV-1 Env of isolate 93RW029 (HIV-1)
[35] = target: HIV-1 envelope glycoprotein (Env) of isolate 93TH305, on pseudovirus (HIV-1)
[36] = target: HIV-1 Env of isolate MGRM-C-025 (subtype C), on pseudovirus (HIV-1)
[37] = target: HIV-1 Env of isolate 92RW020 (HIV-1)
[38] = target: HIV-1 envelope glycoprotein (Env) of isolate 6535.3, on pseudovirus (HIV-1)
[39] = target: HIV-1 Env of isolate MGRM-C-026 (subtype C), on pseudovirus (HIV-1)
[40] = target: HIV-1 SF162 envelope protein (Env) on pseudotyped virus (HIV-1 isolate SF162) (UniProt P19550)

PGT-122 (antibody)
Fold IC50 increase relative to wild-type [1]: 0.7 fold | Fold IC50 increase relative to wild-type [2]: 1.4 fold | Fold IC50 increase relative to wild-type [3]: 1.1 fold | Fold IC50 increase relative to wild-type [4]: 0.8 fold | Fold IC50 increase relative to wild-type [5]: 0.5 fold | Fold IC50 increase relative to wild-type [6]: 1.7 fold | Fold IC50 increase relative to wild-type [7]: 0.6 fold | Fold IC50 increase relative to wild-type [8]: 1.1 fold | Fold IC50 increase relative to wild-type [9]: 2.5 fold | Fold IC50 increase relative to wild-type [10]: 0.7 fold | Fold IC50 increase relative to wild-type [11]: 0.5 fold | Fold IC50 increase relative to wild-type [12]: 0.4 fold | Fold IC50 increase relative to wild-type [13]: 0.6 fold | IC50 neutralization [14]: 0.0337 µg/mL | Fold IC50 increase relative to wild-type [15]: 0.5 fold | Fold IC50 increase relative to wild-type [16]: 0.3 fold | Fold IC50 increase relative to wild-type [17]: 0.3 fold | Fold IC50 increase relative to wild-type [18]: 2.2 fold | Fold IC50 increase relative to wild-type [19]: 0.6 fold | Fold IC50 increase relative to wild-type [20]: 0.7 fold | Fold IC50 increase relative to wild-type [21]: > 50 fold | Fold IC50 increase relative to wild-type [22]: 0.5 fold | Fold IC50 increase relative to wild-type [23]: 0.4 fold

5141_B17 (PGT-126) (antibody)
IC50 [24]: 0.501 µg/mL | IC80 [24]: 4.43 µg/mL | IC90 [24]: > 10 µg/mL | IC95 [24]: > 10 µg/mL | IC50 [25]: 0.0249 µg/mL | IC80 [25]: 0.0681 µg/mL | IC90 [25]: 0.123 µg/mL | IC95 [25]: 0.213 µg/mL | IC50 [26]: 0.0076 µg/mL | IC80 [26]: 0.0345 µg/mL | IC90 [26]: 0.0831 µg/mL | IC95 [26]: 0.185 µg/mL

4838_L06 (PGT-121) (antibody)
neutralization IC80 [24]: 0.371 µg/mL | neutralization IC90 [24]: 0.799 µg/mL | neutralization IC95 [24]: 1.55 µg/mL | neutralization IC80 [25]: 0.145 µg/mL | neutralization IC95 [25]: 0.569 µg/mL | neutralization IC95 [26]: 0.0687 µg/mL

b12 (antibody)
IC90 (pseudovirus neutralization) [27]: > 50 µg/mL

1496_C09 (PG9) (TCN-109) (antibody)
IC50, pseudovirus neutralization [28]: 0.2 µg/mL | IC50, pseudovirus neutralization [29]: 0.181 µg/mL | IC50 (µg/mL), single-round pseudovirus neutralization [30]: 6.4 µg/mL | IC50, pseudovirus neutralization [31]: 0.216 µg/mL | IC50, pseudovirus neutralization [32]: 0.688 µg/mL | IC50 (ug/ml), neutralization [33]: 0.2 µg/mL | IC50 [34]: 0.69 µg/mL | IC50, pseudovirus neutralization [35]: 8.12 µg/mL | IC50 (µg/mL), pseudovirus neutralization [36]: 0.148 µg/mL | IC50 [37]: 0.141 µg/mL | IC50, pseudovirus neutralization [38]: 1.05 µg/mL | IC50 (µg/mL), pseudovirus neutralization [39]: 0.06 µg/mL

PGV04 (antibody)
IC50, pseudovirus neutralization [28]: > 50 µg/mL | IC50, pseudovirus neutralization [29]: 24.2 µg/mL | IC50 (µg/mL), single-round pseudovirus neutralization [30]: 5.99 µg/mL | IC50, pseudovirus neutralization [31]: 0.164 µg/mL | IC50, pseudovirus neutralization [32]: 0.129 µg/mL | IC50 [34]: 0.54 µg/mL | IC50, pseudovirus neutralization [35]: 0.255 µg/mL | IC50 (µg/mL), pseudovirus neutralization [36]: > 50 µg/mL | IC50 [37]: 0.055 µg/mL | IC50, pseudovirus neutralization [38]: 0.757 µg/mL | IC50 (µg/mL), pseudovirus neutralization [39]: 0.303 µg/mL

PGT-121 (antibody)
Fold IC50 increase relative to wild-type [1]: 1.2 fold | Fold IC50 increase relative to wild-type [2]: 0.8 fold | Fold IC50 increase relative to wild-type [3]: 1.1 fold | Fold IC50 increase relative to wild-type [4]: 1.4 fold | Fold IC50 increase relative to wild-type [5]: 1.3 fold | Fold IC50 increase relative to wild-type [6]: 2.5 fold | Fold IC50 increase relative to wild-type [7]: 0.7 fold | Fold IC50 increase relative to wild-type [8]: 1.2 fold | Fold IC50 increase relative to wild-type [9]: 0.7 fold | Fold IC50 increase relative to wild-type [10]: 1.7 fold | Fold IC50 increase relative to wild-type [11]: 0.5 fold | Fold IC50 increase relative to wild-type [12]: 0.5 fold | Fold IC50 increase relative to wild-type [13]: 0.7 fold | IC50 neutralization [14]: 0.0177 µg/mL | Fold IC50 increase relative to wild-type [15]: 0.6 fold | Fold IC50 increase relative to wild-type [16]: 0.6 fold | Fold IC50 increase relative to wild-type [17]: 0.5 fold | Fold IC50 increase relative to wild-type [18]: 1.9 fold | Fold IC50 increase relative to wild-type [19]: 0.2 fold | Fold IC50 increase relative to wild-type [20]: 0.4 fold | Fold IC50 increase relative to wild-type [21]: > 50 fold | Fold IC50 increase relative to wild-type [22]: 0.2 fold | Fold IC50 increase relative to wild-type [23]: 0.5 fold

1443_C16 (PG16) (TCN-116) (antibody)
IC50, pseudovirus neutralization, 1 hour Virus/Ab Incubation [40]: > 50 µg/mL | IC50, pseudovirus neutralization, 18 hour Virus/Ab Incubation [40]: > 50 µg/mL | IC50 (ug/ml), neutralization [33]: 0.004 µg/mL | IC90 (pseudovirus neutralization) [27]: > 50 µg/mL

1495_C14 (PGC14) (antibody)
IC50, pseudovirus neutralization, 1 hour Virus/Ab Incubation [40]: 0.0069 µg/mL | IC50, pseudovirus neutralization, 18 hour Virus/Ab Incubation [40]: < 0.0025 µg/mL
